Measurements published in patent US20190004063A1.

How the values were obtained:
Assay in all cases: flow cytometry on modified HEK293T cells without CD74
[1] = molecular target: SLA-DQα1*0101 + DQβ1*0601 (pairing 8) on modified HEK293T cells without CD74 (pig)
[2] = molecular target: SLA-DRα*020102 + DRβ1*0403 (pairing 1) on modified HEK293T cells without CD74 (pig)
[3] = molecular target: SLA-DRα*020102 + DQβ1*0303 (pairing 9) on modified HEK293T cells without CD74 (pig)
[4] = molecular target: SLA-DQα1*0204 + DQβ1*0601 (pairing 6) on modified HEK293T cells without CD74 (pig)
[5] = molecular target: SLA-DRα*w04 + DQβ1*0303 (pairing 10) on modified HEK293T cells without CD74 (pig)
[6] = molecular target: SLA-DQα1*0101 + DQβ1*0303 (pairing 7) on modified HEK293T cells without CD74 (pig)
[7] = molecular target: SLA-DRα*w04 + DRβ1*0403 (pairing 3) on modified HEK293T cells without CD74 (pig)
[8] = molecular target: SLA-DRα*w04 + DRβ1*1001 (pairing 4) on modified HEK293T cells without CD74 (pig)
[9] = molecular target: SLA-DRα*020102 + DRβ1*1001 (pairing 2) on modified HEK293T cells without CD74 (pig)
[10] = molecular target: SLA-DQα1*0204 + DQβ1*0303 (pairing 5) on modified HEK293T cells without CD74 (pig)

Measured: background MFI

CerCLIP.1, a monoclonal antibody specific for invariant chain peptides associated with Class II SLA
1000 MFI: all assays above
